# Measured values from paper PMC9482650, “Quantitative fragmentomics allow affinity mapping of interactomes” (Nature Communications, 2022).
# T1: DFNB31_3, Q9P202
# T1 sequence (Q9P202 811-907, limits assumed, looked up): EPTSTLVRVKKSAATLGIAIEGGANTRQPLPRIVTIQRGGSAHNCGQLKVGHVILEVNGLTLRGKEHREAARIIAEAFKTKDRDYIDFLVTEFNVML
# T2: DLG3_2, Q92796
# T2 sequence (Q92796 221-321, limits assumed, looked up): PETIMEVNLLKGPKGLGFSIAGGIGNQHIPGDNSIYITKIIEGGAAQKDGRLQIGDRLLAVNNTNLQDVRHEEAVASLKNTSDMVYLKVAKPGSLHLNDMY
# T3: DVL3, Q92997
# T3 sequence (Q92997 244-331, limits assumed, looked up): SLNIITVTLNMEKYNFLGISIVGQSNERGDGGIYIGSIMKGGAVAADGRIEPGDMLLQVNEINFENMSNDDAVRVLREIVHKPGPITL
# T4: GRIP1_5, Q9Y3R0
# T4 sequence (Q9Y3R0 568-668, limits assumed, looked up): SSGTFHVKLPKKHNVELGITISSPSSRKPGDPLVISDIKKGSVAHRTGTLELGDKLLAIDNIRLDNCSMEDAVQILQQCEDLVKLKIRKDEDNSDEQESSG
# T5: LIN7C, Q9NUP9
# T5 sequence (Q9NUP9 88-185, limits assumed, looked up): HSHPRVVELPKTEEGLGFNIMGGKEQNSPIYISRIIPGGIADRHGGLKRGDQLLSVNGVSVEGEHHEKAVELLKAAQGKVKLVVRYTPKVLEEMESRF
# T6: LNX2_2, Q8N448
# T6 sequence (Q8N448 334-432, limits assumed, looked up): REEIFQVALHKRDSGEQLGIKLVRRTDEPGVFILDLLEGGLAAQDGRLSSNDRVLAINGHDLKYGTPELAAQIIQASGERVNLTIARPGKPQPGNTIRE
# T7: MPDZ_5, O75970
# T7 sequence (O75970 695-796, limits assumed, looked up): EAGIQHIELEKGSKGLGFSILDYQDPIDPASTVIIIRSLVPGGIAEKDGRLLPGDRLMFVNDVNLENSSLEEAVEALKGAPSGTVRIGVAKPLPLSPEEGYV
# T8: NHERF3_3, Q5T2W1
# T8 sequence (Q5T2W1 238-333, limits assumed, looked up): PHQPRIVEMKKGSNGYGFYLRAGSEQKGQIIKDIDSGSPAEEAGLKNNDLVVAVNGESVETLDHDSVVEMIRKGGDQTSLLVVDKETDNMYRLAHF
# T9: NHERF3_4, Q5T2W1
# T9 sequence (Q5T2W1 373-468, limits assumed, looked up): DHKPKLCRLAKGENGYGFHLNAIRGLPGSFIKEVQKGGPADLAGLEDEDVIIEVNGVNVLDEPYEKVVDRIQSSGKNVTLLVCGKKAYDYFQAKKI
# T10: SHANK1, Q9Y566
# T10 sequence (Q9Y566 658-767, limits assumed, looked up): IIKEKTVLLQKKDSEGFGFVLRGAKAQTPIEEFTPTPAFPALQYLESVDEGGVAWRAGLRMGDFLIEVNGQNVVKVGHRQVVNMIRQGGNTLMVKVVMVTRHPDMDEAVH
# T11: SIPA1L2, Q9P2F8
# T11 sequence (Q9P2F8 945-1036, limits assumed, looked up): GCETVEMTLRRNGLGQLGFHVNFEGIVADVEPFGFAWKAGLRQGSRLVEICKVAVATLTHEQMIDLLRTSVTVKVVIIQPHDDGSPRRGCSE
# T12: SNTB1, Q13884
# T12 sequence (Q13884 107-205, limits assumed, looked up): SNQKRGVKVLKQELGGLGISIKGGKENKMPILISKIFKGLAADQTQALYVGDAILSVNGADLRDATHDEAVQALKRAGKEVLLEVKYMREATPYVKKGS
# B1: SDK2, Q58EX2 (peptide)
# chain: APIAGFSSFV
# B2: SARS-Cov2-N, P0DTC9 (peptide)
# chain: QQSMSSADSTQA
# B3: SLC22A9, Q8IVM8 (peptide)
# chain: EDPRVEVTQF
# B4: AQP3, Q92482 (peptide)
# chain: LAHVKHKEQI
# What was measured:
# Experiment in all cases: holdup assay
# Parameters in all cases: key: below the threshold = too weak to quantify, mostly under pKd 3.1 to 4
# AHNAK1, Q09666 = molecular target: AHNAK1, Q09666
# AHNAK1, Q09666, sequence (Q09666 4-100): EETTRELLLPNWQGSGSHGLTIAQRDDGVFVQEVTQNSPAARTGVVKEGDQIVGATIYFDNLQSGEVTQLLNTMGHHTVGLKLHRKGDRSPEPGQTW
# DFNB31_3, Q9P202 = molecular target: T1, DFNB31_3, Q9P202
# DLG3_2, Q92796 = molecular target: T2, DLG3_2, Q92796
# DVL3, Q92997 = molecular target: T3, DVL3, Q92997
# FRMPD2_3, Q68DX3 = molecular target: FRMPD2_3, Q68DX3
# FRMPD2_3, Q68DX3, sequence (Q68DX3 1073-1166): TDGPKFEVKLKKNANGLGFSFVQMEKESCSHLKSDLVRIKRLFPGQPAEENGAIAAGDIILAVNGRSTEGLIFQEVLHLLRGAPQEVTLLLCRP
# FRMPD4, Q14CM0 = molecular target: FRMPD4, Q14CM0
# FRMPD4, Q14CM0, sequence (Q14CM0 67-160): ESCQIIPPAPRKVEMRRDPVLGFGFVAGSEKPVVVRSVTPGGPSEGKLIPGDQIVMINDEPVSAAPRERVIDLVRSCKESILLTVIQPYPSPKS
# GORASP1, Q9BQQ3 = molecular target: GORASP1, Q9BQQ3
# GORASP1, Q9BQQ3, sequence (Q9BQQ3 1-208): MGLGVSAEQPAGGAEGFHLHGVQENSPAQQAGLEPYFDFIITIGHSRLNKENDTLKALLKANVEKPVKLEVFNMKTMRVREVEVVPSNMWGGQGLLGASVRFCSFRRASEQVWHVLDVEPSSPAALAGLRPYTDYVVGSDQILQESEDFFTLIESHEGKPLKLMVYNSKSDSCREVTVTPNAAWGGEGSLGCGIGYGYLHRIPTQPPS
# GORASP2, Q9H8Y8 = molecular target: GORASP2, Q9H8Y8
# GRID2IP_1, A4D2P6 = molecular target: GRID2IP_1, A4D2P6
# GRID2IP_1, A4D2P6, sequence (A4D2P6 1-87): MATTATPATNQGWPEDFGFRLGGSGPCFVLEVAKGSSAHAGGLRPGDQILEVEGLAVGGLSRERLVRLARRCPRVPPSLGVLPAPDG
# GRIP1_5, Q9Y3R0 = molecular target: T4, GRIP1_5, Q9Y3R0
# GRIP2_3, Q9C0E4 = molecular target: GRIP2_3, Q9C0E4
# GRIP2_3, Q9C0E4, sequence (Q9C0E4 238-339): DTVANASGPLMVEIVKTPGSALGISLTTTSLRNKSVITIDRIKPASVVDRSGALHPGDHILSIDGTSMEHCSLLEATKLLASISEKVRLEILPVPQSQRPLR
# Inadl_2, Q8NI35 = molecular target: Inadl_2, Q8NI35
# Inadl_2, Q8NI35, sequence (Q8NI35 238-335): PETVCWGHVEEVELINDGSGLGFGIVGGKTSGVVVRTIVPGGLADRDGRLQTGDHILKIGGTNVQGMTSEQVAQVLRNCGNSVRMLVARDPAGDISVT
# LIN7C, Q9NUP9 = molecular target: T5, LIN7C, Q9NUP9
# LNX1_2, Q8TBB1 = molecular target: LNX1_2, Q8TBB1
# LNX1_2, Q8TBB1, sequence (Q8TBB1 371-470): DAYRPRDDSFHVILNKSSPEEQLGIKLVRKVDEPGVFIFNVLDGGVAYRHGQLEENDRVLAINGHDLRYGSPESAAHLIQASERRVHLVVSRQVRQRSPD
# LNX2_2, Q8N448 = molecular target: T6, LNX2_2, Q8N448
# MAGI3_2, Q5TCQ9 = molecular target: MAGI3_2, Q5TCQ9
# MAGI3_2, Q5TCQ9, sequence (Q5TCQ9 398-503): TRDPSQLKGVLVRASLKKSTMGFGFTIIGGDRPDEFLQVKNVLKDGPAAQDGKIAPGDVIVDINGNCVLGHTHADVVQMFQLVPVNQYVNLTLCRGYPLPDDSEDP
# MPDZ_5, O75970 = molecular target: T7, MPDZ_5, O75970
# NHERF3_3, Q5T2W1 = molecular target: T8, NHERF3_3, Q5T2W1
# NHERF3_4, Q5T2W1 = molecular target: T9, NHERF3_4, Q5T2W1
# PICK1, Q9NRD5 = molecular target: PICK1, Q9NRD5
# PICK1, Q9NRD5, sequence (Q9NRD5 17-115): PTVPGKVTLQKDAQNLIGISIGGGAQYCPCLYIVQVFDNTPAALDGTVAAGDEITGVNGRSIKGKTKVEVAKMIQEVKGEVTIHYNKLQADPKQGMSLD
# SCRIB_2, Q14160 = molecular target: SCRIB_2, Q14160
# SCRIB_2, Q14160, sequence (Q14160 857-960): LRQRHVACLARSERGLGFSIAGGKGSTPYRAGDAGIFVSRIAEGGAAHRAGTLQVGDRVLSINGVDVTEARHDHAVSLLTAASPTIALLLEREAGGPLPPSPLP
# SHANK1, Q9Y566 = molecular target: T10, SHANK1, Q9Y566
# SIPA1L2, Q9P2F8 = molecular target: T11, SIPA1L2, Q9P2F8
# SNTB1, Q13884 = molecular target: T12, SNTB1, Q13884
# TJP1_2, Q07157 = molecular target: TJP1_2, Q07157
# TJP1_2, Q07157, sequence (Q07157 181-274): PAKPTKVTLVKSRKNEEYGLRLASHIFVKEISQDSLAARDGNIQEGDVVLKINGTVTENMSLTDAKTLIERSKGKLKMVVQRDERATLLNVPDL
# [1] = plain residues with an end cap or a label only (N-terminal biotin on a linker: ado-ado)
# [2] = plain residues with an end cap or a label only (N-terminal biotin on a linker: (peg)3)
binder,measurement,setting,value
B1,pKd,"AHNAK1, Q09666; [1]",below the threshold
same,pKd,"DFNB31_3, Q9P202; [1]",below the threshold
same,pKd,"DLG3_2, Q92796; [1]",4.07
same,pKd,"DVL3, Q92997; [1]",3.88
same,pKd,"FRMPD2_3, Q68DX3; [1]",below the threshold
same,pKd,"FRMPD4, Q14CM0; [1]",below the threshold
same,pKd,"GORASP1, Q9BQQ3; [1]",3.75
same,pKd,"GORASP2, Q9H8Y8; [1]",4.03
same,pKd,"GRID2IP_1, A4D2P6; [1]",below the threshold
same,pKd,"GRIP1_5, Q9Y3R0; [1]",below the threshold
same,pKd,"GRIP2_3, Q9C0E4; [1]",below the threshold
same,pKd,"Inadl_2, Q8NI35; [1]",below the threshold
same,pKd,"LIN7C, Q9NUP9; [1]",below the threshold
same,pKd,"LNX1_2, Q8TBB1; [1]",below the threshold
same,pKd,"LNX2_2, Q8N448; [1]",4.13
same,pKd,"MAGI3_2, Q5TCQ9; [1]",4.27
same,pKd,"MPDZ_5, O75970; [1]",below the threshold
same,pKd,"NHERF3_3, Q5T2W1; [1]",below the threshold
same,pKd,"NHERF3_4, Q5T2W1; [1]",below the threshold
same,pKd,"PICK1, Q9NRD5; [1]",below the threshold
same,pKd,"SCRIB_2, Q14160; [1]",3.62
same,pKd,"SHANK1, Q9Y566; [1]",below the threshold
same,pKd,"SIPA1L2, Q9P2F8; [1]",below the threshold
same,pKd,"SNTB1, Q13884; [1]",3.97
same,pKd,"TJP1_2, Q07157; [1]",below the threshold
B2,pKd,"AHNAK1, Q09666; [2]",below the threshold
same,pKd,"DFNB31_3, Q9P202; [2]",below the threshold
same,pKd,"DLG3_2, Q92796; [2]",below the threshold
same,pKd,"DVL3, Q92997; [2]",below the threshold
same,pKd,"FRMPD2_3, Q68DX3; [2]",below the threshold
same,pKd,"FRMPD4, Q14CM0; [2]",below the threshold
same,pKd,"GORASP1, Q9BQQ3; [2]",below the threshold
same,pKd,"GORASP2, Q9H8Y8; [2]",below the threshold
same,pKd,"GRID2IP_1, A4D2P6; [2]",below the threshold
same,pKd,"GRIP1_5, Q9Y3R0; [2]",below the threshold
same,pKd,"GRIP2_3, Q9C0E4; [2]",below the threshold
same,pKd,"Inadl_2, Q8NI35; [2]",below the threshold
same,pKd,"LIN7C, Q9NUP9; [2]",below the threshold
same,pKd,"LNX1_2, Q8TBB1; [2]",below the threshold
same,pKd,"LNX2_2, Q8N448; [2]",below the threshold
same,pKd,"MAGI3_2, Q5TCQ9; [2]",below the threshold
same,pKd,"MPDZ_5, O75970; [2]",below the threshold
same,pKd,"NHERF3_3, Q5T2W1; [2]",below the threshold
same,pKd,"NHERF3_4, Q5T2W1; [2]",below the threshold
same,pKd,"PICK1, Q9NRD5; [2]",below the threshold
same,pKd,"SCRIB_2, Q14160; [2]",below the threshold
same,pKd,"SHANK1, Q9Y566; [2]",below the threshold
same,pKd,"SIPA1L2, Q9P2F8; [2]",below the threshold
same,pKd,"SNTB1, Q13884; [2]",below the threshold
same,pKd,"TJP1_2, Q07157; [2]",below the threshold
B3,pKd,"AHNAK1, Q09666; [1]",below the threshold
same,pKd,"DFNB31_3, Q9P202; [1]",3.84
same,pKd,"DLG3_2, Q92796; [1]",4.17
same,pKd,"DVL3, Q92997; [1]",below the threshold
same,pKd,"FRMPD2_3, Q68DX3; [1]",below the threshold
same,pKd,"FRMPD4, Q14CM0; [1]",below the threshold
same,pKd,"GORASP1, Q9BQQ3; [1]",below the threshold
same,pKd,"GORASP2, Q9H8Y8; [1]",below the threshold
same,pKd,"GRID2IP_1, A4D2P6; [1]",below the threshold
same,pKd,"GRIP1_5, Q9Y3R0; [1]",below the threshold
same,pKd,"GRIP2_3, Q9C0E4; [1]",below the threshold
same,pKd,"Inadl_2, Q8NI35; [1]",below the threshold
same,pKd,"LIN7C, Q9NUP9; [1]",below the threshold
same,pKd,"LNX1_2, Q8TBB1; [1]",below the threshold
same,pKd,"LNX2_2, Q8N448; [1]",below the threshold
same,pKd,"MAGI3_2, Q5TCQ9; [1]",below the threshold
same,pKd,"MPDZ_5, O75970; [1]",below the threshold
same,pKd,"NHERF3_3, Q5T2W1; [1]",below the threshold
same,pKd,"NHERF3_4, Q5T2W1; [1]",4.58
same,pKd,"PICK1, Q9NRD5; [1]",below the threshold
same,pKd,"SCRIB_2, Q14160; [1]",below the threshold
same,pKd,"SHANK1, Q9Y566; [1]",5.36
same,pKd,"SIPA1L2, Q9P2F8; [1]",below the threshold
same,pKd,"SNTB1, Q13884; [1]",below the threshold
same,pKd,"TJP1_2, Q07157; [1]",below the threshold
B4,pKd,"AHNAK1, Q09666; [1]",below the threshold
same,pKd,"DFNB31_3, Q9P202; [1]",below the threshold
same,pKd,"DLG3_2, Q92796; [1]",below the threshold
same,pKd,"DVL3, Q92997; [1]",below the threshold
same,pKd,"FRMPD2_3, Q68DX3; [1]",below the threshold
same,pKd,"FRMPD4, Q14CM0; [1]",below the threshold
same,pKd,"GORASP1, Q9BQQ3; [1]",below the threshold
same,pKd,"GORASP2, Q9H8Y8; [1]",below the threshold
same,pKd,"GRID2IP_1, A4D2P6; [1]",below the threshold
same,pKd,"GRIP1_5, Q9Y3R0; [1]",below the threshold
same,pKd,"GRIP2_3, Q9C0E4; [1]",below the threshold
same,pKd,"Inadl_2, Q8NI35; [1]",below the threshold
same,pKd,"LIN7C, Q9NUP9; [1]",below the threshold
same,pKd,"LNX1_2, Q8TBB1; [1]",below the threshold
same,pKd,"LNX2_2, Q8N448; [1]",below the threshold
same,pKd,"MAGI3_2, Q5TCQ9; [1]",below the threshold
same,pKd,"MPDZ_5, O75970; [1]",below the threshold
same,pKd,"NHERF3_3, Q5T2W1; [1]",below the threshold
same,pKd,"NHERF3_4, Q5T2W1; [1]",below the threshold
same,pKd,"PICK1, Q9NRD5; [1]",3.98
same,pKd,"SCRIB_2, Q14160; [1]",below the threshold
same,pKd,"SHANK1, Q9Y566; [1]",below the threshold
same,pKd,"SIPA1L2, Q9P2F8; [1]",below the threshold
same,pKd,"SNTB1, Q13884; [1]",below the threshold
same,pKd,"TJP1_2, Q07157; [1]",below the threshold
